In patent US10500249B2, “Compositions and methods for preventing or treating diseases, conditions, or processes characterized by aberrant fibroblast proliferation and extracellular matrix deposition” (MOERAE MATRIX, INC., priority 2014, dated 2019):

Tests used:
Test in all cases: Kinase Profiling Assay
Assay type in all cases: biochemical
Details in all cases: 100 μM
[1] = target: T1, ASK1 (h) (Homo sapiens, UniProt Q99683)
T1 sequence (Q99683 1-1374): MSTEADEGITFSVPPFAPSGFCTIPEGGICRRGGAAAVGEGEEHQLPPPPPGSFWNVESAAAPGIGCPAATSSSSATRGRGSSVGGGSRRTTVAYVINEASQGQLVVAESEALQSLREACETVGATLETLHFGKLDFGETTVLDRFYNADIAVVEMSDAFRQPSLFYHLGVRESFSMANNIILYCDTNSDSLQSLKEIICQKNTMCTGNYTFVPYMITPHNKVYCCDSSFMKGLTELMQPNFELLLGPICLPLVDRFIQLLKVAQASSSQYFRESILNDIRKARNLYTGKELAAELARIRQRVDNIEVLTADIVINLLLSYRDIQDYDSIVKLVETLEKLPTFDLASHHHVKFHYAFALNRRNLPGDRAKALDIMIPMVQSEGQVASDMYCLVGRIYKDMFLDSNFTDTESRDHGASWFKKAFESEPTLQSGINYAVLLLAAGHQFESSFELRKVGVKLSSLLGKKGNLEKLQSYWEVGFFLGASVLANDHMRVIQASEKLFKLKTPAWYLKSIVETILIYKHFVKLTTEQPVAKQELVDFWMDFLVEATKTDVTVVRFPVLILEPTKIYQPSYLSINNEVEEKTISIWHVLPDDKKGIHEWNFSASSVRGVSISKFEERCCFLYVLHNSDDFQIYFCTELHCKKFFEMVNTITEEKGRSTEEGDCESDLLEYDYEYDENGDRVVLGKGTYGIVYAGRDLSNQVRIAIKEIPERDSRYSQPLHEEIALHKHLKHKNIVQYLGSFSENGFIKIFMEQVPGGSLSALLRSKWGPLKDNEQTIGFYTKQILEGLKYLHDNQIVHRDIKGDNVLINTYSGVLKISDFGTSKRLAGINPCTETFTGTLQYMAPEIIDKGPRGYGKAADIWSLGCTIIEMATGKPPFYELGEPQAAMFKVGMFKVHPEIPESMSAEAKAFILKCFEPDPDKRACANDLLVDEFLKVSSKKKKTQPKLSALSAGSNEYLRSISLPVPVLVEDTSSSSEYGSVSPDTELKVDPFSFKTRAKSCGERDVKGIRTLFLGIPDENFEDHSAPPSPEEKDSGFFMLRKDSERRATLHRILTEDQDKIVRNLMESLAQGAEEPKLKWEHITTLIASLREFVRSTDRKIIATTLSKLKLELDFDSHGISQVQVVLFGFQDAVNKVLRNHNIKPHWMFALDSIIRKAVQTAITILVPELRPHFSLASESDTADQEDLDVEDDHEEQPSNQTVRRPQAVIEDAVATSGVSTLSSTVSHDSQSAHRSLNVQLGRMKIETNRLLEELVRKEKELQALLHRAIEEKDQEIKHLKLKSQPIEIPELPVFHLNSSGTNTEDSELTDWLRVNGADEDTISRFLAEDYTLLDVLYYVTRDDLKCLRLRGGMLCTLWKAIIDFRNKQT
Procedure, shortened: (§1)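 Scintillation counting quantifies radiolabeled, positively charged substrate retained on a negatively charged filter after kinase reaction with labeled ATP; inhibitor peptide present.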

[2] = target: T2, CHK2(R145W) (h) (Homo sapiens, UniProt O96017, R145W)
T2 construct: purchased Millipore
T2 sequence (O96017 whole entry R145W): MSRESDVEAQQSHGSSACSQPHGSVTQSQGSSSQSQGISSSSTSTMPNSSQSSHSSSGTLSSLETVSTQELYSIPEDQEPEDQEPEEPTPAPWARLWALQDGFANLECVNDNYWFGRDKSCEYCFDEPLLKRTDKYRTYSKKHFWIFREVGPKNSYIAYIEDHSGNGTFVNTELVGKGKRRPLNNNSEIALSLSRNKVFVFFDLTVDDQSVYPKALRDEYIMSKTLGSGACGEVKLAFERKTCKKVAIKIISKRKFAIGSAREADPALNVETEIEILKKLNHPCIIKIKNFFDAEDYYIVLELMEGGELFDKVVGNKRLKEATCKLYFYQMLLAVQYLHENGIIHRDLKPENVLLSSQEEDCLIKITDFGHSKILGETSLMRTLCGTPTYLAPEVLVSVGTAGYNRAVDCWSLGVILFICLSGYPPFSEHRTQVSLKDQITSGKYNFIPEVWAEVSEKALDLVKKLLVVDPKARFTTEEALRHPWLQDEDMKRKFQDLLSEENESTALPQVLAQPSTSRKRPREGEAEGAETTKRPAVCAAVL
Procedure, shortened: as §1

[3] = target: T3, CLK3 (h) (Homo sapiens, UniProt P49761)
T3 construct: purchased Millipore
T3 sequence (P49761 whole entry): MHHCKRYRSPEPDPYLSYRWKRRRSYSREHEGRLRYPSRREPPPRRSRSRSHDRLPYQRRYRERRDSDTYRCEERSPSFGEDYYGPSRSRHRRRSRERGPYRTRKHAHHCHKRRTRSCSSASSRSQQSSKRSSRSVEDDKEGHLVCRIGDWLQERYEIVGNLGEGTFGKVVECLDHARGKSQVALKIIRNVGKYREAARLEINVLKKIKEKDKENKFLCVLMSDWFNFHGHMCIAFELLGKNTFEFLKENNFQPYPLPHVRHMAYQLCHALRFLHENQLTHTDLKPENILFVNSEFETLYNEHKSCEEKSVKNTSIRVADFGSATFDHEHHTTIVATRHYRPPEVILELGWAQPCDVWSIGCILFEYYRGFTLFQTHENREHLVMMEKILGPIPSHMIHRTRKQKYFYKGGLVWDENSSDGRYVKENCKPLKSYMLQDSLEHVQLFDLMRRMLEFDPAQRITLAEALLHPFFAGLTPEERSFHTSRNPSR
Procedure, shortened: as §1

[4] = target: STK33 (h) (Homo sapiens, UniProt Q9BYT3)
STK33 (h), sequence (Q9BYT3 whole entry): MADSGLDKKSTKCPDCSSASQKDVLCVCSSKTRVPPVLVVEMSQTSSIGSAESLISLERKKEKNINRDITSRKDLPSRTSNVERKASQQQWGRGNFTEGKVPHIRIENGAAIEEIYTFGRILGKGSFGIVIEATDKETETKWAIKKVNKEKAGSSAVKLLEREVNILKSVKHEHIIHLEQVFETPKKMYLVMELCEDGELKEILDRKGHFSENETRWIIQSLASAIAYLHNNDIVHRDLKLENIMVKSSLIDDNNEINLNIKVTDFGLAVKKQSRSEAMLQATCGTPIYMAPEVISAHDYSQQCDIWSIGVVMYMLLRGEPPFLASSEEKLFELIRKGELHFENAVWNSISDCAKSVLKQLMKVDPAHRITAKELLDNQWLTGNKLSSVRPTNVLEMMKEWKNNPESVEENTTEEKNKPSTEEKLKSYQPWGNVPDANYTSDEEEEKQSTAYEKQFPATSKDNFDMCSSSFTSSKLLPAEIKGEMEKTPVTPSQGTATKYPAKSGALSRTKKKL
Procedure, shortened: as §1

[5] = target: T4, MST1 (h) (Homo sapiens, UniProt Q13043)
T4 construct: purchased Millipore
T4 sequence (Q13043 1-487): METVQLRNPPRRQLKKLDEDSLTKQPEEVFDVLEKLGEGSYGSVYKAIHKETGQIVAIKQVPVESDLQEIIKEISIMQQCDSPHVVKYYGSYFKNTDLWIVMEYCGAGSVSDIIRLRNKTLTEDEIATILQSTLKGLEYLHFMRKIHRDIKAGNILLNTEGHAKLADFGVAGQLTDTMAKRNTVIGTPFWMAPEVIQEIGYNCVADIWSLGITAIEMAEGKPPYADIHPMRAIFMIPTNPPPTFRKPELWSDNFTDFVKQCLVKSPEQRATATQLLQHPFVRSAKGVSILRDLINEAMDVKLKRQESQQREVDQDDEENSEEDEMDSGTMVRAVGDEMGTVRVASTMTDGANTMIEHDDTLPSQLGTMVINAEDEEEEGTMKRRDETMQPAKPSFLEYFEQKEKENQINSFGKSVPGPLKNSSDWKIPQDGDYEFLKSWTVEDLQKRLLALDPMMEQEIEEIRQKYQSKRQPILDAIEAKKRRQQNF
Procedure, shortened: as §1

[6] = target: WNK3 (h) (Homo sapiens, UniProt Q9BYP7)
WNK3 (h), sequence (Q9BYP7 whole entry): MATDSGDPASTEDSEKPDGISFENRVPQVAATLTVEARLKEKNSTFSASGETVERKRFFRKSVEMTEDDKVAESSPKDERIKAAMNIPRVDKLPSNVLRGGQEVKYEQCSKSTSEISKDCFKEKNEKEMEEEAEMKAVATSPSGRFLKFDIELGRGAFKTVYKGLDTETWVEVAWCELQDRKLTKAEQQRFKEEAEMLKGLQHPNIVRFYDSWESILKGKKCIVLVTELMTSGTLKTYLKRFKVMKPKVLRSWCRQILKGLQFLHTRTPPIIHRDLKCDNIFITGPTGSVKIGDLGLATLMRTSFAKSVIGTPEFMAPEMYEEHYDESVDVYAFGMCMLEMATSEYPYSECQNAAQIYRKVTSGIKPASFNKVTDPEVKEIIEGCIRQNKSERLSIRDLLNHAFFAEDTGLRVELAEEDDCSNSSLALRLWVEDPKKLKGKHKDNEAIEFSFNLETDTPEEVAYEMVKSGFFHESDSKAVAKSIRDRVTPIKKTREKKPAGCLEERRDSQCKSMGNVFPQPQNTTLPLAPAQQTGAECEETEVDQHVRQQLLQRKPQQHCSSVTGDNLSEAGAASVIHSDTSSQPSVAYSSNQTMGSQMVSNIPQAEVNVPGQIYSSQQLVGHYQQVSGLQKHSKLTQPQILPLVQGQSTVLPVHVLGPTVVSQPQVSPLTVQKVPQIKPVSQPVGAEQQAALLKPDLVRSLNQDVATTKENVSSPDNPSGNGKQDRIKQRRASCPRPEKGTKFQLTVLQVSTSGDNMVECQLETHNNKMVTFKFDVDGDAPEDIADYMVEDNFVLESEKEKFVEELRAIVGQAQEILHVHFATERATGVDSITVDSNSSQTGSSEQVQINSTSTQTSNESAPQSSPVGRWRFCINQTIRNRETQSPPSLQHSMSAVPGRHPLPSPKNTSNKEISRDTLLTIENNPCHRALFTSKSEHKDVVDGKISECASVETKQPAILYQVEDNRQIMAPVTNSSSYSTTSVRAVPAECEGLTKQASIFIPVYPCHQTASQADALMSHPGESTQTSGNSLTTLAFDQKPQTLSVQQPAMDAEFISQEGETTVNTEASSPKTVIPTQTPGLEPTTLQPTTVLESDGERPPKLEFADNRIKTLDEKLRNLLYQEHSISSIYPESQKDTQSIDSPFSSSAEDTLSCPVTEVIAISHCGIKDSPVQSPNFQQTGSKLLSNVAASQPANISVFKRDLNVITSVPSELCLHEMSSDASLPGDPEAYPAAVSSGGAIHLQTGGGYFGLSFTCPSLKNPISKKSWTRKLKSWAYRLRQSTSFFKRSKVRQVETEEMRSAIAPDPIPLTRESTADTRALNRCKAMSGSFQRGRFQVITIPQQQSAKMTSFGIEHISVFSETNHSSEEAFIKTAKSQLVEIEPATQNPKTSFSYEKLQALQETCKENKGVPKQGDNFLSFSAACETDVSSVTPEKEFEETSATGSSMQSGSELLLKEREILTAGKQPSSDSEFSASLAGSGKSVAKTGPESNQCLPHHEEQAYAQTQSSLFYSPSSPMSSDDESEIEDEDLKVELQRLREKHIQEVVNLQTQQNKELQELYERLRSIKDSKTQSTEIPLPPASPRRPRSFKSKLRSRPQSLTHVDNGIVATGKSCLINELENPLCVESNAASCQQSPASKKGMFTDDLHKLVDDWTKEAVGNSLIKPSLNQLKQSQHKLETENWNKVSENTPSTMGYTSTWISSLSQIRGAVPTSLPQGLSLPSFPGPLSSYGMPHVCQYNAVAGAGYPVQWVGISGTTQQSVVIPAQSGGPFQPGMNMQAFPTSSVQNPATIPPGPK
Procedure, shortened: as §1

[7] = target: Fms (h) (Homo sapiens, UniProt P07333)
Procedure, shortened: as §1

[8] = target: Plk3 (h) (Homo sapiens, UniProt Q9H4B4)
Plk3 (h), sequence (Q9H4B4 whole entry): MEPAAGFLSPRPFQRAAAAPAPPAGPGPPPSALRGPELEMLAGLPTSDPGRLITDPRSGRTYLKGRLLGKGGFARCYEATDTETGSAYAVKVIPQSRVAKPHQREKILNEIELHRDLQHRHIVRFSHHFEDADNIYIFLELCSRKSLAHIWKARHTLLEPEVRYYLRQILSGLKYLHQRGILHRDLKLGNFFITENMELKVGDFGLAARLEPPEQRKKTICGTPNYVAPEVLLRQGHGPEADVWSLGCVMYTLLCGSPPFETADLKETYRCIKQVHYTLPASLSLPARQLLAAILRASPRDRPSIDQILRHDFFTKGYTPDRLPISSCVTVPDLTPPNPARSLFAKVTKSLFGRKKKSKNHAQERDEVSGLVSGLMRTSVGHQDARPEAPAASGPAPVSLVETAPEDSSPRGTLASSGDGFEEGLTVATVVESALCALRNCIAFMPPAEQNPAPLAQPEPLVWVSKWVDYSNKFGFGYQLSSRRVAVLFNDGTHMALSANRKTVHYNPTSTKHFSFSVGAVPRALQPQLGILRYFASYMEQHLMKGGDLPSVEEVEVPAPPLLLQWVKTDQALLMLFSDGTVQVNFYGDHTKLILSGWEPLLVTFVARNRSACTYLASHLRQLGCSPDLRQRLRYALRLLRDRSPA
Procedure, shortened: as §1

Sequence	% activity [1] [%]	% activity [2] [%]	% activity [3] [%]	% activity [4] [%]	% activity [5] [%]	% activity [6] [%]	% activity [7] [%]	% activity [8] [%]
FAKLAARLYRKALARQLGVAA [MMI-0300]	80	33	61	45	14	77	45	127
HRRIKAWLKKIKALARQLGVAA (Mammalian) [MMI-0500]	−4	3	76	16	3	9	14	122
YARAAARQARAKALNRQLGVA (Mammalian) [MMI-0200]	101	81	76	98	72	97	92	
KAFAKLAARLYRKALARQLGVAA [MMI-0400]	69	31	84	52	6	74	37	129
